Values of other authors, collected in article PMC11139829.
“And” between values parts separate entries of the source, which are not always exact repeats. Equal entries are not always repeated. Where two headings read alike, the source gives them in different places.

Columns and labels:
[1] = target: β-clamp (Escherichia coli) (UniProt P0A988); test: SPR
[2] = target: β-clamp (Escherichia coli) (UniProt P0A988)
[3] = target: β-clamp (Escherichia coli) (UniProt P0A988); test: ITC
[4] = target: β-clamp (Escherichia coli) (UniProt P0A988); test: ITC; remark: listed apart in the source
[5] = target: β-clamp (Escherichia coli) (UniProt P0A988); test: ITC; remark: listed apart in the source
[6] = target: β-clamp (Escherichia coli) (UniProt P0A988); test: Fluorescence
[7] = target: β-clamp (Escherichia coli) (UniProt P0A988); test: SEC

Sequence of Pol III α (P10443 whole entry): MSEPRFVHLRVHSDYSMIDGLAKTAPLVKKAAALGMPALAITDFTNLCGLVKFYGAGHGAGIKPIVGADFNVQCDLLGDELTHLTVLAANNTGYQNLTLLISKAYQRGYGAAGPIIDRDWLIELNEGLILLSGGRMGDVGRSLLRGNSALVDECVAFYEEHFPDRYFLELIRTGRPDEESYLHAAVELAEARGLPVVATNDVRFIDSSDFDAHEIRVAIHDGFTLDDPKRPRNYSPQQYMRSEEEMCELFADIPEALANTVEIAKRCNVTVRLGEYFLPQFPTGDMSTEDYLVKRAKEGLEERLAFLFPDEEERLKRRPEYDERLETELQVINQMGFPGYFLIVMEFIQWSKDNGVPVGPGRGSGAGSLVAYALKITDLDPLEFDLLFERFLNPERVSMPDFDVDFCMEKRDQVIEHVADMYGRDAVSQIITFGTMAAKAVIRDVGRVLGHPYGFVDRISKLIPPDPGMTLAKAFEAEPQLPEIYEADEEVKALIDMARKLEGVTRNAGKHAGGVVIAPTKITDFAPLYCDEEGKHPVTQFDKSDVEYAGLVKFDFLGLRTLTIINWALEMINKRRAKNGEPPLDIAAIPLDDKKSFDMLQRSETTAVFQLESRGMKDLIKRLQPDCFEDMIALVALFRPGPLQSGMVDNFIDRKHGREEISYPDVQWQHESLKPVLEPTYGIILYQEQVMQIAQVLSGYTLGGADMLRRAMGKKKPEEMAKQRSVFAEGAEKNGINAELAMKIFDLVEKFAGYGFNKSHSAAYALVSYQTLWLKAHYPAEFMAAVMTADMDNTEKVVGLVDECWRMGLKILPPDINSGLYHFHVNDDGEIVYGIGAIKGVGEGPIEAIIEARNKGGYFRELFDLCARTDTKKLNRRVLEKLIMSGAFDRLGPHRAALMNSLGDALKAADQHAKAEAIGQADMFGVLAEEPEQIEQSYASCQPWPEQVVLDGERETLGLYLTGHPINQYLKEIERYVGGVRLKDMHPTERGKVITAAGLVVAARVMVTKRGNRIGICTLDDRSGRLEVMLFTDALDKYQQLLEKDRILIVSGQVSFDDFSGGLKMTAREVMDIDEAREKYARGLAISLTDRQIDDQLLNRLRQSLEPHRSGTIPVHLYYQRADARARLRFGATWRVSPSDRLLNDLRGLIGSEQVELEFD
Sequence of UniProt P0A988 (P0A988 whole entry): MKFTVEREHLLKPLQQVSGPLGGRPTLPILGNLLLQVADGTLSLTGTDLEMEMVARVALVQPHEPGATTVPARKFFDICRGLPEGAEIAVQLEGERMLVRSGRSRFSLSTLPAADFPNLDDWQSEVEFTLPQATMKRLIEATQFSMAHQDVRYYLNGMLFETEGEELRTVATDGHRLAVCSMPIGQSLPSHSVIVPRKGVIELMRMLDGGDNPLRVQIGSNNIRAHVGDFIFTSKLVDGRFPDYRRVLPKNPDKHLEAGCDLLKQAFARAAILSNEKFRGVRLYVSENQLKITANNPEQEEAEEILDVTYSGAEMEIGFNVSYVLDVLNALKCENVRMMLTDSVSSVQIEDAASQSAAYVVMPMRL

Row | Substance | Kd [1] | Kd [3] | Kd [6] | Kd [7] | also measured
1 | Pol III ε peptide | 210000 nM | – | – | – | –
2 | Pol II (from UniProt P21189) | 31.6 nM | – | – | – | Kd [2]: 120 nM
3 | Pol III α C-terminal CBM peptide | – | 1420 nM | 3200 nM and 3000 nM | – | Kd [4]: 3950 nM; Kd [5]: 3060 nM
4 | Pol III α internal CBM peptide | 2700 nM | > 15000 nM | – | – | –
5 | Pol III α + ε (from UniProt P10443) | – | – | – | 300 nM | –
6 | Pol III α (from UniProt P10443) | 108 nM and 800 nM | 1500 nM | 110 nM | 1200 nM | –
7 | Pol II CBM peptide | – | 1700 nM | 3500 nM | – | –
8 | Pol III core (from UniProt P10443) | – | – | 51 nM and 50 nM | < 5 nM | –
